Experimental data reported in article PMC8159254.

Biological target: NfRedAm, reductive aminase from Neosartorya fumigata (Neosartorya fumigata)
Assay: SEC-MALS

For “NfRedAm, reductive aminase from Neosartorya fumigata (enzyme)”, which stoichiometry N is on record?
Its stoichiometry N is 2.
